# Data as given in patent publication US20210355237A1 (RIKEN, published 2021).
# T1: Peptide (-4) with 6×His tag and GS linker (canine)
# T1 construct: 4 amino acids deleted from the N terminal of Peptide-full
# T1 peptide: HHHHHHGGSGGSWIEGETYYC
# T2: Peptide (-3C) with 6×His tag and GS linker (canine)
# T2 construct: 3 amino acids deleted from the C terminal
# T2 peptide: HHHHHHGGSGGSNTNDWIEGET
# T3: Peptide (-4C) with 6×His tag and GS linker (canine)
# T3 construct: 4 amino acids deleted from the C terminal
# T3 peptide: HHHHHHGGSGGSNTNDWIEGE
# T4: Peptide (-5C) with 6×His tag and GS linker (canine)
# T4 construct: 5 amino acids deleted from the C terminal
# T4 peptide: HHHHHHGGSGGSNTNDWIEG
# T5: Peptide (-1C) with 6×His tag and GS linker (canine)
# T5 construct: 1 amino acid deleted from the C terminal
# T5 peptide: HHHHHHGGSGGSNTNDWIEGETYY
# T6: Peptide (-2C) with 6×His tag and GS linker (canine)
# T6 construct: 2 amino acids deleted from the C terminal
# T6 peptide: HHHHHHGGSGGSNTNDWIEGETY
# Columns and labels:
# [1] = target: T1, Peptide (-4) with 6×His tag and GS …; experiment: ELISA, His-tagged peptide captured by anti-His tag antibody, biotinylated 6C12
# [2] = target: T2, Peptide (-3C) with 6×His tag and GS …; experiment: as above
# [3] = target: T3, Peptide (-4C) with 6×His tag and GS …; experiment: as above
# [4] = target: T4, Peptide (-5C) with 6×His tag and GS …; experiment: as above
# [5] = target: T5, Peptide (-1C) with 6×His tag and GS …; experiment: as above
# [6] = target: T6, Peptide (-2C) with 6×His tag and GS …; experiment: as above
# [7] = target: heated (56° C.) Der f 2-IgE antibody in experimental canine serum (canine); experiment: Der f 2-IgE ELISA, serum after heating, specimen containing non-pathogenic IgE antibody
# [8] = target: non-heated Der f 2-IgE antibody in experimental canine serum (beagles sensitized with Der f 2 and alum) (canine); experiment: Der f 2-IgE ELISA, serum before heating, specimen containing non-pathogenic IgE antibody
# [9] = target: heated (56° C., 15 minutes) Der f 2-IgE antibody in clinical-case serum of allergic dogs (canine); experiment: Der f 2-IgE ELISA, serum after heating, specimen containing pathogenic IgE antibody
# [10] = target: feline serum IgE antibody of allergy cases, after heating (feline); experiment: IgE ELISA of feline serum on immobilised Dermatophagoides Farinae allergen, 6C12 detection; Allergy case, Cat 2
# [11] = target: feline serum IgE antibody of allergy cases, after heating (feline); experiment: IgE ELISA of feline serum on immobilised Dermatophagoides Farinae allergen, 6C12 detection; Allergy case, Cat 3
# [12] = target: non-heated Der f 2-IgE antibody in clinical-case serum of allergic dogs (canine); experiment: Der f 2-IgE ELISA, serum before heating, specimen containing pathogenic IgE antibody
# [13] = target: feline serum IgE antibody of allergy cases, after heating (feline); experiment: IgE ELISA of feline serum on immobilised Dermatophagoides Farinae allergen, 6C12 detection; Allergy case, Cat 1
binder,measurement,setting,value
"6C12 (monoclonal antibody produced from hybridoma clone 6C12, mouse IgG1κ) (antibody, V domains shown, Mouse IgG1κ purified from ascites on Protein G; used biotin-labelled (ELISA, flow cytometry) or FITC-labelled (RBL-2H3); 129-174); also called 6C12 antibody; purified 6C12) VH: EVQLVESGGGLVQPKGSLKLSCAASGFNFNAYVMNWVRQAPGKGLEWVSRIRSKSNNYATYYADSVKDRFTISRDDSESMLYLQMNNLKTEDTAMYYCVRPDYYGGSPFAYWGQGTLVTVSA VL: QIVLTQSPAIMSASPGEKVTISCSASSSVSYMYWYQQKPGSSPKPWIYRTSNLASGVPARFGGSGSGTSYSLTISSMEAEDAATYYCQQYHSYPPTFGVGTKLELK",binding result,[1],no binding
same,binding result,[2],no binding
same,binding result,[3],no binding
same,binding result,[4],no binding
same,binding result,[5],no binding
same,binding result,[6],no binding
same,Der f 2-IgE concentration detected by 6C12,[7],1050 ng/mL
same,Der f 2-IgE concentration detected by 6C12,[8],1050 ng/mL
same,Der f 2-IgE concentration detected by 6C12,[9],848 ng/mL
same,"IgE level detected by 6C12, After heating",[10],34 ng/mL
same,"IgE level detected by 6C12, After heating",[11],91 ng/mL
same,Der f 2-IgE concentration detected by 6C12,[12],0 ng/mL
same,"IgE level detected by 6C12, After heating",[13],89 ng/mL
